# Measured values from patent publication US20260242440A1, “NOVEL MEANS TO MODULATE NMDA RECEPTOR-MEDIATED TOXICITY” (FUNDAMENTAL PHARMA GMBH, priority 2018, published 2026).
# “Also recorded” adds a separate entry of the source.
# B1: SEQ ID NO:52: fragment of mouse TRPM4, amino acid residues 536-648 (protein, listed as Mus musculus)
# chain: SYLGQDHRENDSLLMDWANKQPSTDASFEQAPWSDLLIWALLLNRAQMAIYFWEKGSNSVASALGACLLLRVMARLESEAEEAARRKDLAATFESMSVDLFGECYHNSEERAARLLLRRCPLWG
# B2: SEQ ID NO:53: corresponds to SEQ ID NO:47 but comprises additionally a membrane-anchor (GPI) (protein)
# chain: LQAQVERIMTRKELLTVYSSEDGSEEFETIVLRALVKACGSSEASAYLDELRLAVAWNRVDIAQSELFRGDIQWRSFHLEASLMDALLNDRPEFVRLLISHGLSLGHFLTPVRLAQLYSAVSPNSLIRNLLDQASHASSSKSPPVNGTVELRPPNVGQVLRTLLGETCAPRYPARNTRDSYLGQDHRENDSLLMDWANKQPSTDASFEQAPWSDLLIWALLLNRAQMAIYFWEKGSNSVASALGACLLLRVMARLESEAEEAARRKDLAATFESMSVDLFGECYHNSEERAARLLLRRCPLWGEATCLQLAMQADARAFFAQDGVQSLLTQKWWGEMDSTTPLENGGTSLSEKTVLLLVTPFLAAAWSLHP
# modifications: GPI membrane anchor; Fusion protein of SEQ ID NO: and SEQ ID NO:57
# B3: SEQ ID NO:50: fragment of mouse TRPM4, amino acid residues 347-467 (protein, listed as Mus musculus)
# chain: LQAQVERIMTRKELLTVYSSEDGSEEFETIVLRALVKACGSSEASAYLDELRLAVAWNRVDIAQSELFRGDIQWRSFHLEASLMDALLNDRPEFVRLLISHGLSLGHFLTPVRLAQLYSAVS
# B4: SEQ ID NO:48: fragment of mouse TRPM4, amino acid residues 690-1036 (protein, listed as Mus musculus)
# chain: IWALLLAFFCPPLIYTNLIVFRKSEEEPTQKDLDFDMDSSINGAGPPGTVEPSAKVALERRQRRRPGRALCCGKFSKRWSDFWGAPVTAFLGNVVSYLLFLLLFAHVLLVDFQPTKPSVSELLLYFWAFTLLCEELRQGLGGGWGSLASGGRGPDRAPLRHRLHLYLSDTWNQCDLLALTCFLLGVGCRLTPGLFDLGRTVLCLDFMIFTLRLLHIFTVNKQLGPKIVIVSKMMKDVFFFLFFLCVWLVAYGVATEGILRPQDRSLPSILRRVFYRPYLQIFGQIPQEEMDVALMIPGNCSMERGSWAHPEGPVAGSCVSQYANWLVVLLLIVFLLVANILLLNLLI
# B5: SEQ ID NO:51: fragment of mouse TRPM4, amino acid residues 468-548 (protein, listed as Mus musculus)
# chain: SLGHFLTPVRLAQLYSAVSPNSLIRNLLDQASHASSSKSPPVNGTVELRPPNVGQVLRTLLGETCAPRYPARNTRDSYLGQDHRENDSLLMDWANKQPST
# B6: SEQ ID NO:49: fragment of mouse TRPM4, amino acid residues 1037-1213 (protein, listed as Mus musculus)
# chain: AMFSYTFSKVHGNSDLYWKAQRYSLIREFHSRPALAPPLIIISHVRLLIKWLRRCRRCRRANLPASPVFEHFRVCLSKEAERKLLTWESVHKENFLLAQARDKRDSDSERLKRTSQKVDTALKQLGQIREYDRRLRGLEREVQHCSRVLTWMAEALSHSALLPPGAPPPPSPTGSKD
# B7: SEQ ID NO:47: fragment of mouse TRPM4, amino acid residues 347-689 (protein, listed as Mus musculus)
# chain: LQAQVERIMTRKELLTVYSSEDGSEEFETIVLRALVKACGSSEASAYLDELRLAVAWNRVDIAQSELFRGDIQWRSFHLEASLMDALLNDRPEFVRLLISHGLSLGHFLTPVRLAQLYSAVSPNSLIRNLLDQASHASSSKSPPVNGTVELRPPNVGQVLRTLLGETCAPRYPARNTRDSYLGQDHRENDSLLMDWANKQPSTDASFEQAPWSDLLIWALLLNRAQMAIYFWEKGSNSVASALGACLLLRVMARLESEAEEAARRKDLAATFESMSVDLFGECYHNSEERAARLLLRRCPLWGEATCLQLAMQADARAFFAQDGVQSLLTQKWWGEMDSTTP
# Tested on: primary mouse hippocampal neurons
# Experiment: NMDA induced cell death (excitotoxicity) in cultured primary neurons
# Assay type: cell-based
# Settings: polypeptide expressed via rAAV infection on DIV3; NMDA 20 μM for 10 min; cell death assessed 24 h later
# Experimental: Primary mouse hippocampal and cortical neurons were prepared and maintained as known. Briefly, hippocampi or cerebral cortex from P0 C57Bl/6NCrl mice were dissociated and plated at a density of 1.2*105/cm^2 in Growth Medium (GM), consisting of Neurobasal A medium (Gibco™, 10888022), 2% serum free B27™ Supplement (Gibco™, 17504044), 1% rat serum (Biowest, S2150), 0.5 mM L-Glutamine (Sigma, G7513) and 0.5% P-S. Cytosine β-D-arabinofuranoside (AraC; Sigma, C1768; 2.8 μM) was added on DIV3 to prevent the proliferation of glial cells. From DIV8, half of the medium was replaced by GM without Rat serum every 48 h until being used for experiments. 24 h before experiments, GM was replaced with transfection medium (10 mM HEPES, pH 7.4, 114 mM NaCl, 26.1 mM NaHCO3, 5.3 mM KCl, 1 mM MgCl2, 2 mM CaCl2, 30 mM glucose, 1 mM glycine, 0.5 mM C3H3NaO3, and 0.001% phenol red and 10% of phosphate-free Eagle's minimum essential medium, supplemented with 7.5 µg/ml insulin, 7.5 µg/ml transferrin and 7.5 ng/ml sodium selenite (ITS Liquid Media Supplement, Sigma-Aldrich Cat #I3146)). Primary hippocampal neurons were used in live cell imaging, cell death experiments, while cortical neurons were used for mRNA and protein extraction analysis.
# All viral particles were produced and purified as known in the art. All TRPM4 derived peptides (comprising SEQ ID NO:5, or any of SEQ ID NO:46 to SEQ ID NO:56) were cloned into rAAV backbone by PCR. shRNA against mouse TRPM4 were designed by BLOCK-iT™ RNAi Designer from Thermofisher to target: […] (SEQ ID NO:44, shTRPM4-1) and […] (SEQ ID NO:45, shTRPM4-2). Scramble shRNA (shSCR) has been tested and proven to have no known targets in mice. GPI anchor ([…], e.g. used in SEQ ID NO:53) sequences were synthesized by Eurofins Genomics (Ebersberg, Germany). All primers were synthesized and all plasmids were confirmed by sequencing by Eurofins Genomics.
# In order to investigate the role of TRPM4 in NMDA receptor mediated excitotoxicity, the inventors used RNA interference strategies to knock down TRPM4. Cultured primary mouse hippocampus neurons were infected on day 3 in vitro (DIV3) with recombinant adeno-associated viruses (rAAVs) providing for expression of a scramble control (shSCR), shTRPM4-1 (SEQ ID NO:44) or shTRPM4-2 (SEQ ID NO:45). On DIV15-16, neurons were challenged with N-methyl-D-aspartate (NMDA, 20 μM) for 10 min. After NMDA wash out, neurons were kept in the culture medium for another 24 h before analysis. […] Evidently, TRPM4 is thus involved in the process of NMDA receptor mediated excitotoxicity.
# In a next step, the inventors tried to identify regions in the mouse TRPM4 protein potentially involved in NMDA receptor mediated excitotoxicity. For this purpose, polypeptide fragments of mouse TRPM4 protein were generated and their impact on NMDA induced excitotoxicity analysed. To do so, primary neuron cultures were infected with respective rAAVs on DIV3, challenged with NMDA (20 μM) for 10 min on DIV17 and cell death assessed 24 hours later.
# The sequence of SEQ ID NO:5 in TRPM4 is located in vivo just beneath the plasma membrane. […] To test this hypothesis, the inventors created a fusion protein comprising SEQ ID NO:5 and a GPI anchor, SEQ ID NO:57. The sequence of the fusion is given in SEQ ID NO:53. Neurons infected with rAAV and expressing SEQ ID NO:47 (control) or SEQ ID NO:53 were exposed to NMDA (20 μM) for 10 min on DIV15-16, with cell death assessed after 24 h.
# In a next step, the inventors created a mutant of SEQ ID NO:5, in which two adjacent phenylalanine residues where substituted by tyrosine residues (SEQ ID NO: 54). […] TRPM5 is a protein related to but nonetheless distinct to TRPM4. The region in TRPM5 corresponding to SEQ ID NO:5, SEQ ID NO:55, shares only about 60% sequence identity with SEQ ID NO:5. Neurons were infected on DIV3 with rAAVs expressing SEQ ID NO: 5, SEQ ID NO: 54 or SEQ ID NO:55 and exposed to NMDA (20 μM) for 10 min on DIV17, with cell death assessed 24 h later. […]
row,Molecule,protection against NMDA induced cell death (neuroprotective effect)
1,"SEQ ID NO:46: fragment of mouse TRPM4, amino acid residues 1-346",only SEQ ID NO:47 is neuroprotective
2,B1,only SEQ ID NO:5 is neuroprotective
3,B2,can increase the ability to protect neurons from excitotoxicity; also recorded: increased the protective effects
4,B3,only SEQ ID NO:5 is neuroprotective
5,B4,only SEQ ID NO:47 is neuroprotective
6,B5,only SEQ ID NO:5 is neuroprotective
7,B6,only SEQ ID NO:47 is neuroprotective
8,B7,contains a neuroprotective element

# Same assay, conditions: rAAV shRNA infection DIV3; NMDA 20 μM 10 min on DIV15-16; analysis 24 h later
row,Molecule,protection from NMDA induced excitotoxicity by knockdown of TRPM4
1,"shTRPM4-1: shRNA against mouse TRPM4 targeting ggacatcgcccaaagtgaact, expressed from rAAV (guide GGACAUCGCCCAAAGUGAACU; listed as Mus musculus)",significantly protected neurons
2,"shTRPM4-2: shRNA against mouse TRPM4 targeting gcatccagagagggttcattc, expressed from rAAV (guide GCAUCCAGAGAGGGUUCAUUC; listed as Mus musculus)",significantly protected neurons
